Results from article PMC5993529.

Key:
[1] = molecular target: Recombinant human VEGFR1 (human) (UniProt P17948); test: SPR
[2] = molecular target: Recombinant human VEGFR2 (human) (UniProt P35968); test: SPR
Sequence of UniProt P35968 (P35968 20-764): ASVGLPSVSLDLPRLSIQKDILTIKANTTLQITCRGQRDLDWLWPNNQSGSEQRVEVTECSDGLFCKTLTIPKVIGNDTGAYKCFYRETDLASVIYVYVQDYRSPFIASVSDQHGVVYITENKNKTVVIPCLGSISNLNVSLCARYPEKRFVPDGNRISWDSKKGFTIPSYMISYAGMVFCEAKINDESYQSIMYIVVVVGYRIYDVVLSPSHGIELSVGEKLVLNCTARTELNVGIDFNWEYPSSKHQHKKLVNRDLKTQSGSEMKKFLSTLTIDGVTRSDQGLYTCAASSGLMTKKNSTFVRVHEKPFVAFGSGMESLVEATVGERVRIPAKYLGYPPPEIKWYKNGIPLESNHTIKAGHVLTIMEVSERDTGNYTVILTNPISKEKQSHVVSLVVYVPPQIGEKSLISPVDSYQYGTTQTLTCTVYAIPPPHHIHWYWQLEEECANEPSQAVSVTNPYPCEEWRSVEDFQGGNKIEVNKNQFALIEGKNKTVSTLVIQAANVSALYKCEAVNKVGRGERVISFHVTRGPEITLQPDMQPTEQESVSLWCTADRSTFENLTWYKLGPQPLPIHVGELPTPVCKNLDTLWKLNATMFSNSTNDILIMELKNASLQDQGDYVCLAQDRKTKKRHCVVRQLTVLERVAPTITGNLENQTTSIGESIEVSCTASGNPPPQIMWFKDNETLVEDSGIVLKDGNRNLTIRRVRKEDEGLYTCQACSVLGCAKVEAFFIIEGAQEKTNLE

Sequence of UniProt P17948 (P17948 27-758): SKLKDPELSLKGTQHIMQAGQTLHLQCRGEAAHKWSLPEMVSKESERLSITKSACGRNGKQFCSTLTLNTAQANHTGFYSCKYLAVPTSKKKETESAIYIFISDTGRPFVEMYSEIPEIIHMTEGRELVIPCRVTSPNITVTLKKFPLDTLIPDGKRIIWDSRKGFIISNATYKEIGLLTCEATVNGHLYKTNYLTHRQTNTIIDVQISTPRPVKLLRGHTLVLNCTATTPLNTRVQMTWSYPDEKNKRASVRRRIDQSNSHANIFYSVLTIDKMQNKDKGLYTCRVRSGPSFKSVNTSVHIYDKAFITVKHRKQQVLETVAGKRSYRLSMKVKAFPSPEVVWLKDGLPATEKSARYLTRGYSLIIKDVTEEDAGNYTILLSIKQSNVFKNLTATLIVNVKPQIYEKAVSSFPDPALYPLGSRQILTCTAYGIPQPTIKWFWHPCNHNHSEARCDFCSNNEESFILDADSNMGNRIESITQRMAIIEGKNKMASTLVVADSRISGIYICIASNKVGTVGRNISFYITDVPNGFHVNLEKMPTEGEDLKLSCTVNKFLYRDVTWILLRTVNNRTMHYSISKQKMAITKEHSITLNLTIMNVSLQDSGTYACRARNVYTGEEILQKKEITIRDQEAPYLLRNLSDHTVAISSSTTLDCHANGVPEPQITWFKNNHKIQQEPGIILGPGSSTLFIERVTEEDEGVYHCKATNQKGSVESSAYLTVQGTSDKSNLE

With “Recombinant human VEGFA (from UniProt P15692 1-395) (ligand)” the Kd [1] was 0.0231 nM and the Kd [2] was 0.398 nM.
